Laboratory results published in patent publication US20250163162A1.

T1: IL10Rα/IL2Rγ receptor (human) (UniProt Q13651)
T1 sequence (looked up) 1: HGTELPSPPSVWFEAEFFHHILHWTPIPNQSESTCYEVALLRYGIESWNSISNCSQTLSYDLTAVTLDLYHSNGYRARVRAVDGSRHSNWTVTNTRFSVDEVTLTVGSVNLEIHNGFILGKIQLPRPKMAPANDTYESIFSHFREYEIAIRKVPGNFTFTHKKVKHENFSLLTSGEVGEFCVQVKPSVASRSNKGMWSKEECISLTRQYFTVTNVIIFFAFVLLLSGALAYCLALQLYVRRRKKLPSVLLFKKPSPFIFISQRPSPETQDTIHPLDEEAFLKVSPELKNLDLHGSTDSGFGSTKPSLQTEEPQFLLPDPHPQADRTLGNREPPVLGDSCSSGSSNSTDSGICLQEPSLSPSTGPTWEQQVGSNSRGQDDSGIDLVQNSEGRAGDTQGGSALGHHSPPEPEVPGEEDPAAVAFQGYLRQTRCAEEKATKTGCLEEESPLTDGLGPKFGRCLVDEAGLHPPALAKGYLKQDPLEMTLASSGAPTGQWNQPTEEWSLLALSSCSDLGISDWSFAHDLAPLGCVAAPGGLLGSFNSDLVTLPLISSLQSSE
T1 sequence (looked up) 2: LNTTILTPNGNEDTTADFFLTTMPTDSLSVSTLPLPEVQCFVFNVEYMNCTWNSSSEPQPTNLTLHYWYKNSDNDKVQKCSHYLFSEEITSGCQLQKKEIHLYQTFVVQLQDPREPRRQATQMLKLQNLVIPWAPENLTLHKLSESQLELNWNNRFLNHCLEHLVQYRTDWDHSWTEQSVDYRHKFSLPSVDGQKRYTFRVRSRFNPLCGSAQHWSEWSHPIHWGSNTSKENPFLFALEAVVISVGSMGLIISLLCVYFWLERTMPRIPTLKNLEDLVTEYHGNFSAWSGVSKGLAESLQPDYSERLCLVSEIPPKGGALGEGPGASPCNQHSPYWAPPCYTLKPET

B1: hIL10Ra_VHH14 - hIL2Rg_VHH19, linker GGGS, tag his (bispecific antibody, not shown: small tags and cut ends)
chain: QVQLQESGGGSVQAGGSLRLSCGASGYTYSSYCMGWFRQVPGKEREGVAVIDSDGSTSYADSVKGRFTISKDNGKNTLYLQMNSLKPEDTAMYYCAADLGHYRPPCGVLYLGMDYWGKGTQVTVSSGGGSQVQLQESGGGSVQAGGSLRLSCTASGFTFDDREMNWYRQAPGNECELVSTISSDGSTYYADSVKGRFTISQDNAKNTVYLQMDSVKPEDTAVYYCAADFMIAIQAPGAGCWGQGTQVTVSS
B2: hIL10Ra_VHH14 - hIL2Rg_VHH19, linker GS, tag his (bispecific antibody, not shown: small tags and cut ends)
chain: QVQLQESGGGSVQAGGSLRLSCGASGYTYSSYCMGWFRQVPGKEREGVAVIDSDGSTSYADSVKGRFTISKDNGKNTLYLQMNSLKPEDTAMYYCAADLGHYRPPCGVLYLGMDYWGKGTQVTVSSGSQVQLQESGGGSVQAGGSLRLSCTASGFTFDDREMNWYRQAPGNECELVSTISSDGSTYYADSVKGRFTISQDNAKNTVYLQMDSVKPEDTAVYYCAADFMIAIQAPGAGCWGQGTQVTVSS

biological target: T1, IL10Rα/IL2Rγ receptor (human); test: cell-based or functional assay

B1 and B2 are the same in Granzyme A secretion, CD8 T cells, at 0 µM: 25200 pg/mL for the first, 25200 pg/mL for the second.

B1 and B2 are within 1.5-fold of each other in Granzyme A secretion, CD8 T cells, at 0.0001 µM: 19700 pg/mL for the first, 19900 pg/mL for the second.

B1 and B2 are within 1.5-fold of each other in Granzyme A secretion, CD8 T cells, at 0.001 µM: 20900 pg/mL for the first, 22700 pg/mL for the second.

B1 and B2 are within 1.5-fold of each other in Granzyme A secretion, CD8 T cells, at 0.01 µM: 22300 pg/mL for the first, 25900 pg/mL for the second.

B1 and B2 are within 1.5-fold of each other in Granzyme A secretion, CD8 T cells, at 0.1 µM: 23700 pg/mL for the first, 26100 pg/mL for the second.

B1 and B2 are within 1.5-fold of each other in Granzyme A secretion, CD8 T cells, at 1 µM: 26400 pg/mL for the first, 27900 pg/mL for the second.

B1 and B2 are within 1.5-fold of each other in Granzyme A secretion, CD8 T cells, at 10 µM: 26500 pg/mL for the first, 28600 pg/mL for the second.

B1 and B2 are within 1.5-fold of each other in Granzyme A secretion, CD8 T cells, at 100 µM: 27300 pg/mL for the first, 28400 pg/mL for the second.

B1 and B2 are the same in Granzyme B secretion, CD8 T cells, at 0 µM: 77700 pg/mL for the first, 77700 pg/mL for the second.

B1 and B2 are within 1.5-fold of each other in Granzyme B secretion, CD8 T cells, at 0.0001 µM: 49300 pg/mL for the first, 49200 pg/mL for the second.

B1 and B2 are within 1.5-fold of each other in Granzyme B secretion, CD8 T cells, at 0.001 µM: 45600 pg/mL for the first, 49400 pg/mL for the second.

B1 and B2 are within 1.5-fold of each other in Granzyme B secretion, CD8 T cells, at 0.01 µM: 48100 pg/mL for the first, 55500 pg/mL for the second.

B1 and B2 are within 1.5-fold of each other in Granzyme B secretion, CD8 T cells, at 0.1 µM: 55300 pg/mL for the first, 58000 pg/mL for the second.

B1 and B2 are within 1.5-fold of each other in Granzyme B secretion, CD8 T cells, at 1 µM: 72700 pg/mL for the first, 80200 pg/mL for the second.

B1 and B2 are within 1.5-fold of each other in Granzyme B secretion, CD8 T cells, at 10 µM: 84700 pg/mL for the first, 87000 pg/mL for the second.

B1 and B2 are within 1.5-fold of each other in Granzyme B secretion, CD8 T cells, at 100 µM: 94600 pg/mL for the first, 99900 pg/mL for the second.

B1 and B2 are the same in IFNγ secretion, CD8 T cells, at 0 µM: 122000 pg/mL for the first, 122000 pg/mL for the second.

B1 and B2 are within 1.5-fold of each other in IFNγ secretion, CD8 T cells, at 0.0001 µM: 96800 pg/mL for the first, 91700 pg/mL for the second.

B1 and B2 are within 1.5-fold of each other in IFNγ secretion, CD8 T cells, at 0.001 µM: 99600 pg/mL for the first, 105000 pg/mL for the second.

B1 and B2 are within 1.5-fold of each other in IFNγ secretion, CD8 T cells, at 0.01 µM: 107000 pg/mL for the first, 122000 pg/mL for the second.

B1 and B2 are within 1.5-fold of each other in IFNγ secretion, CD8 T cells, at 0.1 µM: 114000 pg/mL for the first, 129000 pg/mL for the second.

B1 and B2 are within 1.5-fold of each other in IFNγ secretion, CD8 T cells, at 1 µM: 130000 pg/mL for the first, 134000 pg/mL for the second.

B1 and B2 are within 1.5-fold of each other in IFNγ secretion, CD8 T cells, at 10 µM: 134000 pg/mL for the first, 143000 pg/mL for the second.

B1 and B2 are within 1.5-fold of each other in IFNγ secretion, CD8 T cells, at 100 µM: 134000 pg/mL for the first, 143000 pg/mL for the second.

B1 and B2 are the same in IL-1β secretion, LPS treated monocytes, at 0 µM: 6240 pg/mL for the first, 6240 pg/mL for the second.

B1 and B2 are the same in IL-1β secretion, LPS treated monocytes, at 0 µM (LPS only): 6880 pg/mL for the first, 6880 pg/mL for the second.

B1 and B2 are within 1.5-fold of each other in IL-1β secretion, LPS treated monocytes, at 0.0001 µM: 6420 pg/mL for the first, 5960 pg/mL for the second.

B1 and B2 are within 1.5-fold of each other in IL-1β secretion, LPS treated monocytes, at 0.001 µM: 6640 pg/mL for the first, 6270 pg/mL for the second.

B1 and B2 are within 1.5-fold of each other in IL-1β secretion, LPS treated monocytes, at 0.01 µM: 5760 pg/mL for the first, 5060 pg/mL for the second.

B1 and B2 are within 1.5-fold of each other in IL-1β secretion, LPS treated monocytes, at 0.1 µM: 6120 pg/mL for the first, 6590 pg/mL for the second.

B1 and B2 are within 1.5-fold of each other in IL-1β secretion, LPS treated monocytes, at 1 µM: 5350 pg/mL for the first, 5760 pg/mL for the second.

B1 and B2 are within 1.5-fold of each other in IL-1β secretion, LPS treated monocytes, at 10 µM: 5950 pg/mL for the first, 6710 pg/mL for the second.

B1 and B2 are within 1.5-fold of each other in IL-1β secretion, LPS treated monocytes, at 100 µM: 6580 pg/mL for the first, 8140 pg/mL for the second.

B1 and B2 are the same in IL-9 secretion, CD8 T cells, at 0 µM: 1350 pg/mL for the first, 1350 pg/mL for the second.

B1 and B2 are within 1.5-fold of each other in IL-9 secretion, CD8 T cells, at 0.0001 µM: 941 pg/mL for the first, 918 pg/mL for the second.

B1 and B2 are within 1.5-fold of each other in IL-9 secretion, CD8 T cells, at 0.001 µM: 1000 pg/mL for the first, 998 pg/mL for the second.

B1 and B2 are within 1.5-fold of each other in IL-9 secretion, CD8 T cells, at 0.01 µM: 1120 pg/mL for the first, 1070 pg/mL for the second.

B1 and B2 are within 1.5-fold of each other in IL-9 secretion, CD8 T cells, at 0.1 µM: 1340 pg/mL for the first, 1230 pg/mL for the second.

B1 and B2 are within 1.5-fold of each other in IL-9 secretion, CD8 T cells, at 1 µM: 1400 pg/mL for the first, 1610 pg/mL for the second.

B1 and B2 are within 1.5-fold of each other in IL-9 secretion, CD8 T cells, at 10 µM: 1680 pg/mL for the first, 1730 pg/mL for the second.

B1 and B2 are within 1.5-fold of each other in IL-9 secretion, CD8 T cells, at 100 µM: 1710 pg/mL for the first, 1880 pg/mL for the second.
